Results: the DeepSol protein solubility set

Test: soluble on expression in E. coli; label from the status in PepcDB or PDB records

| Sequence | soluble on expression in E. coli |
| --- | --- |
| MAHHHHHHMAFTGPNPSIWVGGLDPDLQEQKLYDYFVRIGPVTSVRVCVDSATQKSLGYGYVNFQDPADAEKALDQAGSKLGSRYLRIAKIQRDPSKRRSGVNNILVKKLPKSVDTYALKEMFSKFGRLTAIGLACDEKGESRGYARISFEREESAVDAVREMDGMEMDGQAIVVERYQAQHRDELLKQFTNLYVKNLDPAVTDEKLRAFFAKYGEVSSAKVRDLGAAQSEAGLGYVAFQKHENAARAVEELNGKECEIAKAGSPLDVSRFRSREERQRDRERQRRERAQQHSKYPNLYVKGFDDTVTSERLEELFQRYGETVSVTVMMDKETGVSRCFGFVSMKDQNAASQAIQELNGSTFLSPRPLFVTYALRKDARRQNLEERSKQFRVRQNPMGGPGMGAMPPIGFMGPQMFNNVNMPFMNPRVPIMPMNGMNGIGGMNGMGGMNGVGGVGGMGGMGGMGGMGGMGGMGGMGGMGSMGGMGGMARPMAPNAMSQMRSRPMPQKPPMQSLMPQQHQQAPPQGQNLAAVLANLNPEQQKNVLGERLYSYIVRSHPSVAAKITGMLLEMDNAEILNMLDSPTMLDSKIAEAQDVLNRHMSV | soluble |
| MMKRNLIGAFIAASTLLSSSVAFSQDKPAYETGMIPADHIMVPDGDIQASIFLISDANGWTEADETRAKALVEKGAAVVGIDFKEYLKALEADDDECIYMISDIESLSQQIQRTAGTGSYRLPIVTGIGKGGTLALAMIAQSPVSTVREAVAVDPKAGLPLEKILCTPATKDKVDGETVYGLTDGALPAPVSVIFTPDADQKGRDHVNALVKLHSDIEVTDVTDKADEVLTQTLSDKVDAAGDSGNPLGLPITVLEAKPVMDTMAVIYSGDGGWRDLDEEVGSALQKQGVPVIGVDALRYFWKEKDPKEVAGDLARIIDTYRKEWKVKNVVLIGYSFGADIIPATYNLLPDRVKSSVAQLSLLGLSNEVDFEISVQGWLGVAGEGKGGKTVDDIAKIDPKLVQCVYGTEEEDEDPCPGLKAKGVETIGIEGGHHFDEDYEALAKRIVTSLKTRLAKLEHHHHHH | soluble |
| MSLTSLYTGTFVDTPTPAGLRVRRNHLLAVSAQGAIAHIAPVSDPASQALLASAPPPTALGRHSFFLPTYADLHLHAAQYLYAGTGLDLPLLEWLERYAYRAEERVDADEQLAERLYGRLVQRLRENGTGCVVFFGTIGVQANLILARKAQEAGIRAFIGKLSMDESPRPSYGEASPAASLSSLNSFLDSMESYLSQFPSHRRLVQPIITPRFVPVCSDELLQGLAKVAQDRNVRLQSHMCEGRDQIDMSLKTKGLDDEKVFDKFGLLGPQTLQAHVTYLDDKLIPLIKERGVTIAHCPLSNQYLSERQFPLREALDASLSLGLGTDIAGGYSPSIHTAMRQAVIISRMREGDRCESLGCSFGTVKKEEEGGGRNLRVDWKEAVWAATRGGKAGMGLGGALEVGMEFDVQLIELASEENPTGTGPLDLFDLADSQVDTDTDEWWFDALERWWSNGDERNRKGMWVQGAKIAEGHHHHHH | soluble |
| GSGYVFGGFIRADIKKWYIQPNIYYMYNSSSIDVNQTSTDVKSKSVNGDVLLGYRFFKFTDLTYLRLFAGPGYSNINTLKYDSCTSDYSTDNILLNAGVGLDFWKLTFDLKYQRGLTDIDKSSNTMHTSLFMLTAGFKIL | not soluble |
| MLGKGGKRKFDEHEDGLEGKIVSPCDGPSKVSYTLQRQTIFNISLMKLYNHRPLTEPSLQKTVLINNMLRRIQEELKQEGSLRPMFTPSSQPTTEPSDSYREAPPAFSHLASPSSHPCDLGSTTPLEACLTPASLLEDDDDTFCTSQAMQPTAPTKLSPPALLPEKDSFSSALDEIEELCPTSTSTEAATAATDSVKGTSSEAGTQKLDGPQESRADDSKLMDSLPGNFEITTSTGFLTDLTLDDILFADIDTSMYDFDPCTSSSGTASKMAPVSADDLLKTLAPYSSQPVTPSQPFKMDLTELDHIMEVLVGS | soluble |
| LPPGWQSYLSPQGRRYYVNTTTNETTWERPSSS | soluble |
| DVVSYVSHATQQRLQNLVEKISETAQQKNFSYKDDDRYEQASDVRAQLKFFEQLDQIEKQRKDEQEREILMRAAKSRSRQEDPEQLRLKQKAKEMQQQELAQMRQRDANLTALAAIGPRKKRKVDCPGPGSGAEGSGPGSVVPGSSGVGTPRQFTRQRITRVNLRDLIFCLENERETSHSLLLYKAFLK | soluble |
| MCKSCYHCGEDVPANTDFKVEILGEVREMCCPGCETVAQTIVDSGLVSYYQYRTAPAEKADLVPEQLQALIHYDNEDVQSEFVRNHDN | not soluble |
| MSGAAADGIDDRDIPKQEFLDAAFNGDIDKIDGLLRDKKVHIDSVDDDQVTALHIAAAMGNNKLVVRLLDYGANIHAVNHLGMTAYHYAAREGKLAVLDTLMQRGASKNQTTALGVTALTLACAGGHADVVRRLIRISNETPRSKQSLAPTPLIVATCSKSPQICSYLADFRVNLDESMKNLGNLTALSMAIVCTPGVYMVRTLIDLGASVNKKGLGDKTAEELAIMLNRKDLIHFFNEKKSYRSRMNADSDVRKEIKNDHIIERELGAPAQNGVSPLMYATTVRSINSAKHLVLHRDSDVNMRDNLHITSLQIASLLRVDDIIPLLLQRRADVTVVNKYGSTAYDLFLLSCDFLEPGQLRGQLHCHRPIDSKSNLNSSSSNIYKALRSQGILTKVGSQIGINSAKIELIEPKHWLAAKTKYQPAKLRNNYKFASVEDILKSCKVAKRPETNECDNETEAIREYMEECQSFAVFCFSDFYGERENNKATIPDYYDKAQDNAKRYAYLRMDGLDKKNSGRQENVSKLIPVRPRKDSIEREYRKPRNIALVDSPSQSQMRTTPRMLKKRDTDYFSAQAGRARASSTSLQVPTVTVTRQRHVTSPVIEDMIWNHFVRRGKNELMRVLQAAEIDKHSFFSLQQKDLEAMNSYTPENMKLIEDIQTAILSRSL | not soluble |
| ARPCIPKSFGYSSVVCVCNATYCDSFDPPTFPALGTFSRYESTRSGRRMELSMGPIQANHTGTGLLLTLQPEQKFQKVKGFGGAMTDAAALNILALSPPAQNLLLKSYFSEEGIGYNIIRVPMASCDFSIRTYTYADTPDDFQLHNFSLPEEDTKLKIPLIHRALQLAQRPVSLLASPWTSPTWLKTNGAVNGKGSLKGQPGDIYHQTWARYFVKFLDAYAEHKLQFWAVTAENEPSAGLLSGYPFQCLGFTPEHQRDFIARDLGPTLANSTHHNVRLLMLDDQRLLLPHWAKVVLTDPEAAKYVHGIAVHWYLDFLAPAKATLGETHRLFPNTMLFASEACVGSKFWEQSVRLGSWDRGMQYSHSIITNLLYHVVGWTDWNLALNPEGGPNWVRNFVDSPIIVDITKDTFYKQPMFYHLGHFSKFIPEGSQRVGLVASQKNDLDAVALMHPDGSAVVVVLNRSSKDVPLTIKDPAVGFLETISPGYSIHTYLWHRQ | soluble |
| MSLCRWAAYHGTPIFLEDVISRPGHSLIAQSAHAEECKTATNGDGFGVAWYDARPEPGLYRDVYPAWSDPNLRAVAHHVRSGLFLSHVRASTGSCISRNNCHPFAARRWCFMHNGQVGGFEAFRKQADMAIADEFYTYRKGSTDSEVLFLLALSEGLEHDPHGALARAIARLEGLSRAHGTTPHMRLSAAFSDGQTLYAARYSSDHIAPSVYYRYSHARQGWAVVSEPLETDEGDWTELRPGRMLTIGAEGAAERDFAPADLGRAAEGHHHHHH | soluble |
| QGAVRKATAAEIAALPRQKVELVDPPFVHAHSQVAEGGPKVVEFTMVIEEKKIVIDDAGTEVHAMAFNGTVPGPLMVVHQDDYLELTLINPETNTLMHNIDFHAATGALGGGGLTEINPGEKTILRFKATKPGVFVYHCAPPGMVPWHVVSGENGAIMVLPREGLHDGKGKALTYDKIYYVGEQDFYVPRDENGKYKKYEAPGDAYEDTVKVMRTLTPTHVVFNGAVGALTGDKAMTAAVGEKVLIVHSQANRDTRPHLIGGHGDYVWATGKFNTPPDVDQETWFIPGGAAGAAFYTFQQPGIYAYVNHNLIEAFELGAAAHFKVTGEWNDDLMTSVLAPSGT | soluble |
| MSLNPANLPFDSDTMLQGLRAWVECESPTWDTAAVERMLDLAAREMAIMGATIERIAGRQGFAGCVRARFPHPKQGEPGILIAGHLDTVHPVGTLSKLPFRREGNKAFGPGIFDMKGGNYLTLEAIKQLARASFTTPLPITVLFTPDEEVGTPSTRDIIEAEAARNKYVLVPEPGRPDNGVVTGRYAIARFNLEAIGKPSHAGATLSSGRSAIREMAKQILAIDAMTTEDCTFSVGIVHGGQWVNCVATTCTGEALSMAKRQADLDRGVDRMLALSGSSSDVTFKVTRGVTRPVWEPDSGTMALYEKARAVASQLGVSLPHGSAGGGSDGNFTGAMGIPTLDGLGVRGADAHTLNEHIEVDSLAERGRLMAGLLATLEEGHHHHHH | not soluble |
